Assays:
[1] = system: HeLa Kyoto; experiment: solubility change mitosis vs G1/S (difference of NP-40 vs SDS log2 ratios) (log2 ratio difference); higher = more soluble in mitosis
[2] = system: HeLa Kyoto; experiment: solubility in G1/S (NP-40 vs SDS abundance) (log2 ratio); higher = more soluble; details: cell cycle stage: G1/S
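Throughout, for solubility change mitosis vs G1/S (difference of NP-40 vs SDS log2 ratios): synchronized HeLa Kyoto cells (double thymidine block for G1/S, nocodazole release for mitosis), protein amounts in NP-40 versus SDS lysates quantified by mass spectrometry, three biological replicates.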
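Throughout, for solubility in G1/S (NP-40 vs SDS abundance): HeLa Kyoto cells arrested at G1/S by double thymidine block, proteins quantified by TMT10plex mass spectrometry in mild NP-40 versus SDS extracts, three biological replicates.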

Row | Sequence | solubility change mitosis (log2) [1] | solubility in G1/S (log2) [2]
1 | MSVSARSAAAEERSVNSSTMVAQQKNLEGYVGFANLPNQVYRKSVKRGFEFTLMVVGESGLGKSTLINSLFLTDLYSPEYPGPSHRIKKTVQVEQSKVLIKEGGVQLLLTIVDTPGFGDAVDNSNCWQPVIDYIDSKFEDYLNAESRVNRRQMPDNRVQCCLYFIAPSGHGLKPLDIEFMKRLHEKVNIIPLIAKADTLTPEECQQFKKQIMKEIQEHKIKIYEFPETDDEEENKLVKKIKDRLPLAVVGSNTIIEVNGKRVRGRQYPWGVAEVENGEHCDFTILRNMLIRTHMQDLKDVTNNVHYENYRSRKLAAVTYNGVDNNKNKGQLTKSPLAQMEEERREHVAKMKKMEMEMEQVFEMKVKEKVQKLKDSEAELQRRHEQMKKNLEAQHKELEEKRRQFEDEKANWEAQQRILEQQNSSRTLEKNKKKGKIF [SEPT7] | 0.00373 | 0.245
2 | MSWLFPLTKSASSSAAGSPGGLTSLQQQKQRLIESLRNSHSSIAEIQKDVEYRLPFTINNLTININILLPPQFPQEKPVISVYPPIRHHLMDKQGVYVTSPLVNNFTMHSDLGKIIQSLLDEFWKNPPVLAPTSTAFPYLYSNPSGMSPYASQGFPFLPPYPPQEANRSITSLSVADTVSSSTTSHTTAKPAAPSFGVLSNLPLPIPTVDASIPTSQNGFGYKMPDVPDAFPELSELSVSQLTDMNEQEEVLLEQFLTLPQLKQIITDKDDLVKSIEELARKNLLLEPSLEAKRQTVLDKYELLTQMKSTFEKKMQRQHELSESCSASALQARLKVAAHEAEEESDNIAEDFLEGKMEIDDFLSSFMEKRTICHCRRAKEEKLQQAIAMHSQFHAPL [VPS37A] | -0.0301 | 0.656
3 | MSYVFVNDSSQTNVPLLQACIDGDFNYSKRLLESGFDPNIRDSRGRTGLHLAAARGNVDICQLLHKFGADLLATDYQGNTALHLCGHVDTIQFLVSNGLKIDICNHQGATPLVLAKRRGVNKDVIRLLESLEEQEVKGFNRGTHSKLETMQTAESESAMESHSLLNPNLQQGEGVLSSFRTTWQEFVEDLGFWRVLLLIFVIALLSLGIAYYVSGVLPFVENQPELVH [ANKRD46] | 0.136 | 0.237
4 | MTAVNVALIRDTKWLTLEVCREFQRGTCSRADADCKFAHPPRVCHVENGRVVACFDSLKGRCTRENCKYLHPPPHLKTQLEINGRNNLIQQKTAAAMFAQQMQLMLQNAQMSSLGSFPMTPSIPANPPMAFNPYIPHPGMGLVPAELVPNTPVLIPGNPPLAMPGAVGPKLMRSDKLEVCREFQRGNCTRGENDCRYAHPTDASMIEASDNTVTICMDYIKGRCSREKCKYFHPPAHLQARLKAAHHQMNHSAASAMALQPGTLQLIPKRSALEKPNGATPVFNPTVFHCQQALTNLQLPQPAFIPAGPILCMAPASNIVPMMHGATPTTVSAATTPATSVPFAAPTTGNQLKF [MBNL3] | 0.156 | 0.0798
5 | MTEESEETVLYIEHRYVCSECNQLYGSLEEVLMHQNSHVPQQHFELVGVADPGVTVATDTASGTGLYQTLVQESQYQCLECGQLLMSPSQLLEHQELHLKMMAPQEAVPAEPSPKAPPLSSSTIHYECVDCKALFASQELWLNHRQTHLRATPTKAPAPVVLGSPVVLGPPVGQARVAVEHSYRKAEEGGEGATVPSAAATTTEVVTEVELLLYKCSECSQLFQLPADFLEHQATHFPAPVPESQEPALQQEVQASSPAEVPVSQPDPLPASDHSYELRNGEAIGRDRRGRRARRNNSGEAGGAATQELFCSACDQLFLSPHQLQQHLRSHREGVFKCPLCSRVFPSPSSLDQHLGDHSSESHFLCVDCGLAFGTEALLLAHRRAHTPNPLHSCPCGKTFVNLTKFLYHRRTHGVGGVPLPTTPVPPEEPVIGFPEPAPAETGEPEAPEPPVSEETSAGPAAPGTYRCLLCSREFGKALQLTRHQRFVHRLERRHKCSICGKMFKKKSHVRNHLRTHTGERPFPCPDCSKPFNSPANLARHRLTHTGERPYRCGDCGKAFTQSSTLRQHRLVHAQHFPYRCQECGVRFHRPYRLLMHRYHHTGEYPYKCRECPRSFLLRRLLEVHQLVVHAGRQPHRCPSCGAAFPSSLRLREHRCAAAAAQAPRRFECGTCGKKVGSAARLQAHEAAHAAAGPGEVLAKEPPAPRAPRATRAPVASPAALGSTATASPAAPARRRGLECSECKKLFSTETSLQVHRRIHTGERPYPCPDCGKAFRQSTHLKDHRRLHTGERPFACEVCGKAFAISMRLAEHRRIHTGERPYSCPDCGKSYRSFSNLWKHRKTHQQQHQAAVRQQLAEAEAAVGLAVMETAVEALPLVEAIEIYPLAEAEGVQISG [ZNF574] | 0.212 | -0.386
6 | MTSAVVDSGGTILELSSNGVENQEESEKVSEYPAVIVEPVPSARLEQGYAAQVLVYDDETYMMQDVAEEQEVETENVETVEASVHSSNAHCTDKTIEAAEALLHMESPTCLRDSRSPVEVFVPPCVSTPEFIHAAMRPDVITETVVEVSTEESEPMDTSPIPTSPDSHEPMKKKKVGRKPKTQQSPISNGSPELGIKKKPREGKGNTTYLWEFLLDLLQDKNTCPRYIKWTQREKGIFKLVDSKAVSKLWGKHKNKPDMNYETMGRALRYYYQRGILAKVEGQRLVYQFKDMPKNIVVIDDDKSETCNEDLAGTTDEKSLERVSLSAESLLKAASSVRSGKNSSPINCSRAEKGVARVVNITSPGHDASSRSPTTTASVSATAAPRTVRVAMQVPVVMTSLGQKISTVAVQSVNAGAPLITSTSPTTATSPKVVIQTIPTVMPASTENGDKITMQPAKIITIPATQLAQCQLQTKSNLTGSGSINIVGTPLAVRALTPVSIAHGTPVMRLSMPTQQASGQTPPRVISAVIKGPEVKSEAVAKKQEHDVKTLQLVEEKPADGNKTVTHVVVVSAPSAIALPVTMKTEGLVTCEK [ELF2] | 0.0877 | 0.284
7 | MTSPSPRIQIISTDSAVASPQRIQIVTDQQTGQKIQIVTAVDASGSPKQQFILTSPDGAGTGKVILASPETSSAKQLIFTTSDNLVPGRIQIVTDSASVERLLGKTDVQRPQVVEYCVVCGDKASGRHYGAVSCEGCKGFFKRSVRKNLTYSCRSNQDCIINKHHRNRCQFCRLKKCLEMGMKMESVQSERKPFDVQREKPSNCAASTEKIYIRKDLRSPLIATPTFVADKDGARQTGLLDPGMLVNIQQPLIREDGTVLLATDSKAETSQGALGTLANVVTSLANLSESLNNGDTSEIQPEDQSASEITRAFDTLAKALNTTDSSSSPSLADGIDTSGGGSIHVISRDQSTPIIEVEGPLLSDTHVTFKLTMPSPMPEYLNVHYICESASRLLFLSMHWARSIPAFQALGQDCNTSLVRACWNELFTLGLAQCAQVMSLSTILAAIVNHLQNSIQEDKLSGDRIKQVMEHIWKLQEFCNSMAKLDIDGYEYAYLKAIVLFSPDHPGLTSTSQIEKFQEKAQMELQDYVQKTYSEDTYRLARILVRLPALRLMSSNITEELFFTGLIGNVSIDSIIPYILKMETAEYNGQITGASL [NR2C2] | 0.0297 | -0.109
8 | MVAMAAGPSGCLVPAFGLRLLLATVLQAVSAFGAEFSSEACRELGFSSNLLCSSCDLLGQFNLLQLDPDCRGCCQEEAQFETKKLYAGAILEVCGUKLGRFPQVQAFVRSDKPKLFRGLQIKYVRGSDPVLKLLDDNGNIAEELSILKWNTDSVEEFLSEKLERI [SEP15] | -0.028 | 0.305
9 | MVGPGPTAAAAVEERQRKLQEYLAAKGKLKSQNTKPYLKSKNNCQNQPPSKSTIRPKNDVTNHVVLPVKPKRSISIKLQPRPPNTAGSQKPKLEPPKLLGKRLTSECVSSNPYSKPSSKSFQQCEAGSSTTGELSRKPVGSLNIEQLKTTKQQLTDQGNGKCIDFMNNIHVENESLDNFLKETNKENLLDILTEPERKPDPKLYTRSKPKTDSYNQTKNSLVPKQALGKSSVNSAVLKDRVNKQFVGETQSRTFPVKSQQLSRGADLARPGVKPSRTVPSHFIRTLSKVQSSKKPVVKNIKDIKVNRSQYERPNETKIRSYPVTEQRVKHTKPRTYPSLLQGEYNNRHPNIKQDQKSSQVCIPQTSCVLQKSKAISQRPNLTVGRFNSAIPSTPSIRPNGTSGNKHNNNGFQQKAQTLDSKLKKAVPQNHFLNKTAPKTQADVTTVNGTQTNPNIKKKATAEDRRKQLEEWQKSKGKTYKRPPMELKTKRKVIKEMNISFWKSIEKEEEEKKAQLELSSKINNTLTECLNLIEGGVPSNEILNILSSIPEAEKFAKFWICKAKLLASKGTFDVIGLYEEAIKNGATPIQELRKVVLNILQDSNRTTEGITSDSLVAETSITSVEELAKKMESVKSCLSPKEREQVTATPRIAKAEQHNYPGIKLQIGPIPRINGMPEVQDMKFITPVRRSSRIERAVSRYPEMLQEHDLVVASLDELLEVEETKCFIFRRNEALPVTLGFQTPES [CKAP2L] | 0.95 | -1.14
10 | MVPAAGRRPPRVMRLLGWWQVLLWVLGLPVRGVEVAEESGRLWSEEQPAHPLQVGAVYLGEEELLHDPMGQDRAAEEANAVLGLDTQGDHMVMLSVIPGEAEDKVSSEPSGVTCGAGGAEDSRCNVRESLFSLDGAGAHFPDREEEYYTEPEVAESDAAPTEDSNNTESLKSPKVNCEERNITGLENFTLKILNMSQDLMDFLNPNGSDCTLVLFYTPWCRFSASLAPHFNSLPRAFPALHFLALDASQHSSLSTRFGTVAVPNILLFQGAKPMARFNHTDRTLETLKIFIFNQTGIEAKKNVVVTQADQIGPLPSTLIKSVDWLLVFSLFFLISFIMYATIRTESIRWLIPGQEQEHVE [TXNDC15] | -0.0906 | 0.719
11 | MVPPVQVSPLIKLGRYSALFLGVAYGATRYNYLKPRAEEERRIAAEEKKKQDELKRIARELAEDDSILK [ATP5I] | 0.197 | -0.147
12 | MVSDEDELNLLVIVVDANPIWWGKQALKESQFTLSKCIDAVMVLGNSHLFMNRSNKLAVIASHIQESRFLYPGKNGRLGDFFGDPGNPPEFNPSGSKDGKYELLTSANEVIVEEIKDLMTKSDIKGQHTETLLAGSLAKALCYIHRMNKEVKDNQEMKSRILVIKAAEDSALQYMNFMNVIFAAQKQNILIDACVLDSDSGLLQQACDITGGLYLKVPQMPSLLQYLLWVFLPDQDQRSQLILPPPVHVDYRAACFCHRNLIEIGYVCSVCLSIFCNFSPICTTCETAFKISLPPVLKAKKKKLKVSA [GTF2H3] | 0.117 | -0.126
13 | MVVSKMNKDAQMRAAINQKLIETGERERLKELLRAKLIECGWKDQLKAHCKEVIKEKGLEHVTVDDLVAEITPKGRALVPDSVKKELLQRIRTFLAQHASL [ENY2] | 0.636 | -0.203
14 | MWMTPKRSKMEVDEALVFRPEWTQRYLVVEPPEGDGALCLVCRRLIVATRERDVRRHYEAEHEYYERYVADGERAALVERLRQGDLPVASFTPEERAARAGLGLCRLLALKGRGWGEGDFVYQCMEVLLREVLPEHVSVLQGVDLSPDITRQRILSIDRNLRNQLFNRARDFKAYSLALDDQAFVAYENYLLVFIRGVGPELEVQEDLLTIINLTHHFSVGALMSAILESLQTAGLSLQRMVGLTTTHTLRMIGENSGLVSYMREKAVSPNCWNVIHYSGFLHLELLSSYDVDVNQIINTISEWIVLIKTRGVRRPEFQTLLTESESEHGERVNGRCLNNWLRRGKTLKLIFSLRKEMEAFLVSVGATTVHFSDKQWLCDFGFLVDIMEHLRELSEELRVSKVFAAAAFDHICTFEVKLNLFQRHIEEKNLTDFPALREVVDELKQQNKEDEKIFDPDRYQMVICRLQKEFERHFKDLRFIKKDLELFSNPFNFKPEYAPISVRVELTKLQANTNLWNEYRIKDLGQFYAGLSAESYPIIKGVACKVASLFDSNQICEKAFSYLTRNQHTLSQPLTDEHLQALFRVATTEMEPGWDDLVRERNESNP [EPM2AIP1] | 0.291 | -0.485
